For 2 substances, reduction in mIPSC frequency, 250 nM, summed peptide count and summed spectra count results are on record in US20190225662A1.

Assay [1] addresses GABABR1a on mouse hippocampal neurons (cultures and slices) (mouse) (UniProt Q9WV18). The assay can be described thus: cell-based or functional assay.
Assay [2] deals with GABAB Receptor from rat whole-brain synaptosome extracts (rat). The assay can be described thus: affinity pull-down with sAPPα-Fc bait on rat synaptosome extracts, LCLC-MS/MS, three repeats.
Chain of GABAB Receptor from rat whole-brain synaptosome extracts (rat) (Q9Z0U4 20-960, chain 1 of 2): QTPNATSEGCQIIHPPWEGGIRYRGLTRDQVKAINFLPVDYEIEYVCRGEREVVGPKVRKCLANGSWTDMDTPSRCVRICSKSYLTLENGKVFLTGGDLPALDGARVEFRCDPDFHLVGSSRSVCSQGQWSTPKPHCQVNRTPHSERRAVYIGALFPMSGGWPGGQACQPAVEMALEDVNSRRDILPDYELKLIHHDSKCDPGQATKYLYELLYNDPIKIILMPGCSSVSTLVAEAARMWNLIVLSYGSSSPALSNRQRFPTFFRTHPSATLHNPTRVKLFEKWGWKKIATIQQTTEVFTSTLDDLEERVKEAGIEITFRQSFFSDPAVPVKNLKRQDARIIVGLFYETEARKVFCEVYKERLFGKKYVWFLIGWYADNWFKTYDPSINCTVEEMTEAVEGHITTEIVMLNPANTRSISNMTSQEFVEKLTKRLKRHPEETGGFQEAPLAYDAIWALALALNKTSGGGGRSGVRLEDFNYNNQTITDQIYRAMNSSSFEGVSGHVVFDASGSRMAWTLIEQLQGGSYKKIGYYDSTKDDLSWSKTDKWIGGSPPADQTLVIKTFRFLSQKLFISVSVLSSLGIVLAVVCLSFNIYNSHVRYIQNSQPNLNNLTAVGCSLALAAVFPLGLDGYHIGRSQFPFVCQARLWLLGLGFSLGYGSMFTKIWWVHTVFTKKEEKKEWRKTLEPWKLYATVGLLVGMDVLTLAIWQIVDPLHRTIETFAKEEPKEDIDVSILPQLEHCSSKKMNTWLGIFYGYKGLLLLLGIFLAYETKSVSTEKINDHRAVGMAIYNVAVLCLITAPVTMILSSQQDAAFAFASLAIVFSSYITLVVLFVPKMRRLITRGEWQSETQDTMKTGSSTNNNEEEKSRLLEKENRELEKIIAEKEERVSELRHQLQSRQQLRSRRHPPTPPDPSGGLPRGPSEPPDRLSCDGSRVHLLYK
Chain of GABAB Receptor from rat whole-brain synaptosome extracts (rat) (O88871 41-940, chain 2 of 2, further chain): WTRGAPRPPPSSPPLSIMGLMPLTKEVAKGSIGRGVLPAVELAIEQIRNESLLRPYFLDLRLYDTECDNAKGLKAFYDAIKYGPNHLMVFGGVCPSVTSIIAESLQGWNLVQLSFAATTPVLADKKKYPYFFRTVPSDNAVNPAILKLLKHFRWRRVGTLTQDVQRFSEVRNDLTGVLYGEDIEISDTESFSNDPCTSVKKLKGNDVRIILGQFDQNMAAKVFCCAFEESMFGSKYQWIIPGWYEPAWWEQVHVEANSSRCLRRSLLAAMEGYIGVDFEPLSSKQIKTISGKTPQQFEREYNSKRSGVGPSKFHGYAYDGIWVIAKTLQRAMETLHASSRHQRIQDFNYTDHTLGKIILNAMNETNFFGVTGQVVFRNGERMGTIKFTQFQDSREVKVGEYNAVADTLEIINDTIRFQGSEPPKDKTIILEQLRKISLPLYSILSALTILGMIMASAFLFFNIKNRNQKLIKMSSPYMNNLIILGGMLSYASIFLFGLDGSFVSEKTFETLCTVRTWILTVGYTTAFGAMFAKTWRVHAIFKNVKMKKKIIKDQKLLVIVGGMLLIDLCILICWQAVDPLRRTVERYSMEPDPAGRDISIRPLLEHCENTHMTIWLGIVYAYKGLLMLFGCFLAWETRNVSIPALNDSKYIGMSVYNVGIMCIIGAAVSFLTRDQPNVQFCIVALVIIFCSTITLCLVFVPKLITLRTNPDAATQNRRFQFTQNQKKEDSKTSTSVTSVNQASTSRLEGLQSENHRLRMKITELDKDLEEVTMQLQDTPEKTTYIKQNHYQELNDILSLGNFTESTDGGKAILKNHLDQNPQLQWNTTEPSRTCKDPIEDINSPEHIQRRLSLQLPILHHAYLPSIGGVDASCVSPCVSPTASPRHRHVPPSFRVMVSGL

Chain of GABABR1a on mouse hippocampal neurons (cultures and slices) (mouse) (Q9WV18 20-960): as the sequence (Q9Z0U4 20-960, chain 1 of 2) above, with A5V, E108D, V124I, V702I, T850A, L902I counted along it

In assay [1], “sAPLP1 (without Fc) (from UniProt Q03157 38-583) (ligand)” had a reduction in mIPSC frequency, 250 nM of 17%.
In assay [2], “sAPPα-Fc (soluble amyloid precursor protein α fused to human Fc) (from UniProt P12023 18-612) (Fc fusion)” came in with a summed peptide count of 35 and a summed spectra count of 22.
